# Experimental data taken from IntAct's records for PubMed 24636949.
# B1: Unconventional myosin-Ic (Homo sapiens), O00159-2 (parent)
# chain: MESALTARDRVGVQDFVLLENFTSEAAFIENLRRRFRENLIYTYIGPVLVSVNPYRDLQIYSRQHMERYRGVSFYEVPPHLFAVADTVYRALRTERRDQAVMISGESGAGKTEATKRLLQFYAETCPAPERGGAVRDRLLQSNPVLEAFGNAKTLRNDNSSRFGKYMDVQFDFKGAPVGGHILSYLLEKSRVVHQNHGERNFHIFYQLLEGGEEETLRRLGLERNPQSYLYLVKGQCAKVSSINDKSDWKVVRKALTVIDFTEDEVEDLLSIVASVLHLGNIHFAANEESNAQVTTENQLKYLTRLLSVEGSTLREALTHRKIIAKGEELLSPLNLEQAAYARDALAKAVYSRTFTWLVGKINRSLASKDVESPSWRSTTVLGLLDIYGFEVFQHNSFEQFCINYCNEKLQQLFIELTLKSEQEEYEAEGIAWEPVQYFNNKIICDLVEEKFKGIISILDEECLRPGEATDLTFLEKLEDTVKHHPHFLTHKLADQRTRKSLGRGEFRLLHYAGEVTYSVTGFLDKNNDLLFRNLKETMCSSKNPIMSQCFDRSELSDKKRPETVATQFKMSLLQLVEILQSKEPAYVRCIKPNDAKQPGRFDEVLIRHQVKYLGLLENLRVRRAGFAYRRKYEAFLQRYKSLCPETWPTWAGRPQDGVAVLVRHLGYKPEEYKMGRTKIFIRFPKTLFATEDALEVRRQSLATKIQAAWRGFHWRQKFLRVKRSAICIQSWWRGTLGRRKAAKRKWAAQTIRRLIRGFVLRHAPRCPENAFFLDHVRTSFLLNLRRQLPQNVLDTSWPTPPPALREASELLRELCIKNMVWKYCRSISPEWKQQLQQKAVASEIFKGKKDNYPQSVPRLFISTRLGTDEISPRVLQALGSEPIQYAVPVVKYDRKGYKPRSRQLLLTPNAVVIVEDAKVKQRIDYANLTGISVSSLSDSLFVLHVQRADNKQKGDVVLQSDHVIETLTKTALSANRVNSININQGSITFAGGPGRDGTIDFTPGSELLITKAKNGHLAVVAPRLNSR
# Variants of: B1
# Conditions: with 1433b_human YWHAB
row,Variant,effect of a mutation on the interaction
1,S701A,disrupting interaction strength
2,S701E,increasing interaction strength
